Values belong to the substance of their own block, whether it stands above or below them.
Legend:
[1] = tested on: CaM isoforms 2, 4, and 6 from Arabidopsis; assay: Slot blot: synthetic peptides probed with 35S-labeled AtCaM isoforms; assay type: binding, Arabidopsis thaliana
Procedure: Soluble and insoluble proteins from the induced and un-induced cultures were separated on 12% SDS-polyacrylamide gels and blotted as described above. To detect the binding of the expressed proteins to ^35S-labeled AtCaM, duplicate blots were blocked for 15 min in TBS (50 mM Tris-HCl, pH 7.5, 150 mM NaCl) containing 5 mM of either CaCl2 or EGTA and 1% nonfat dry milk. The blots were then incubated for 12 h in a mixture of ^35S-labeled AtCaM isoforms at […] in the same buffers as above. The filters were then washed with the corresponding buffer and dried before exposing to X-ray film. Binding to biotinylated CaM was detected by blocking the blots in 3% gelatin in TBS/Ca/Mg or TBS/EGTA/Mg (50 mM Tris-HCl, pH 7.5, 50 mM MgCl2, 150 mM NaCl, and 5 mM of either CaCl2 or EGTA) at 30° C. […] The blots were then incubated in Vectastain ABC.HRP in TBS/Ca/Mg or TBS/EGTA/Mg for 30 min, washed 3 times, 10 min each, with the above buffer and the CaM-binding proteins were detected colorimetrically in a substrate solution (0.8 mg/ml diaminobenzidine, 0.4 mg/ml NiCl2, and 0.009% H2O2 in 100 mM Tris-HCl, pH 7.5). […]
The interaction between synthetic peptides and AtCaM isoforms was analyzed by applying synthetic peptides to a nitrocellulose membrane in a slot blot apparatus, and incubating the membrane individually with ^35S-labeled AtCaM isoforms using the method described above.

35S-labeled AtCaM = assay: Blot overlay of bacterially expressed maize NPG1 fusion proteins with 35S-CaM; assay type: binding, Arabidopsis thaliana; conditions: in the presence of Ca2+
Procedure: The 1.2-kb cDNA insert (named P3) containing the coding region for 242 amino acids in the carboxyl-terminal region was cloned in-frame into a pET28b expression vector. For mapping the CaM-binding domain, several truncated constructs were prepared in a pET vector. The P3 cDNA in pET28 was digested with either NcoI or BamHI to release a 168- or 717-bp fragment corresponding to the 5′ end of the cDNA. The NcoI and BamHI fragments were cloned into pET28b vector digested with the respective enzymes to generate P3/NcoI and P3/BamHI clones. The P3 clones lacking either NcoI or BamHI fragments were religated to generate PΔNcoI and PΔBamHI expression clones. […]
Soluble and insoluble proteins from the induced and un-induced cultures were separated on 12% SDS-polyacrylamide gels and blotted as described above. […] Binding to biotinylated CaM was detected by blocking the blots in 3% gelatin in TBS/Ca/Mg or TBS/EGTA/Mg (50 mM Tris-HCl, pH 7.5, 50 mM MgCl2, 150 mM NaCl, and 5 mM of either CaCl2 or EGTA) at 30° C. […] The blots were then incubated in Vectastain ABC.HRP in TBS/Ca/Mg or TBS/EGTA/Mg for 30 min, washed 3 times, 10 min each, with the above buffer and the CaM-binding proteins were detected colorimetrically in a substrate solution (0.8 mg/ml diaminobenzidine, 0.4 mg/ml NiCl2, and 0.009% H2O2 in 100 mM Tris-HCl, pH 7.5).

bovine CaM [2] = biological target: T1, bovine CaM (Bos taurus, UniProt P62157); assay: Tryptophan fluorescence spectroscopy of peptide with CaM; assay type: binding; conditions: equimolar peptide and bovine CaM, excitation 290 nm; free peptide about 350 nm
T1 construct: purchased Calbiochem-Novabiochem (San Diego, Calif.)
Procedure: (§1) The tryptophan fluorescence spectra of free and CaM-bound synthetic peptide were recorded with a Hitachi-F-3010/4010 spectrofluorimeter as described in Reddy et al. (1996) supra. NPG1 peptide and AtCaMs (166 pmol each) were mixed in a […] reaction volume. The tryptophan residue in free and CaM-bound synthetic NPG1 peptide was excited at 290 nm and the emission wavelength values were recorded from 300 to 400 nm with a bandwidth of 5 nm in a 5-mm quartz cell at 25° C. Samples were incubated for 1 h at 25° C. prior to spectroscopic measurements. Corrections were made for the protein and solvent blanks.

CaM4 = biological target: T2, CaM4 (Arabidopsis thaliana, UniProt P0DH96); assay: as above; assay type: binding
T2 construct: made in house; host or cells: E. coli BL21(DE3)
Procedure: as §1

CaM2 = biological target: T3, CaM2 (Arabidopsis thaliana, UniProt P0DH97); assay: as above; assay type: binding; conditions: equimolar peptide and CaM2, excitation 290 nm; free peptide about 350 nm
T3 construct: made in house; host or cells: E. coli BL21(DE3)
Procedure: as §1

CaM6 = biological target: T4, CaM6 (Arabidopsis thaliana, UniProt Q03509); assay: as above; assay type: binding; conditions: equimolar peptide and CaM6, excitation 290 nm; free peptide about 350 nm
T4 construct: made in house; host or cells: E. coli BL21(DE3)
Procedure: as §1

[3] = tested on: AtCaM isoforms (CaM2, CaM4, CaM6); assay: Calmodulin electrophoretic mobility shift assay in 4 M urea gels; assay type: binding, Arabidopsis thaliana
Procedure: (§2) The interaction of CaM with synthetic peptide was also analyzed using electrophoretic mobility shift of CaM in the presence of a synthetic peptide. Each of the AtCaM isoforms and bovine CaM (166 pmol) were incubated with increasing concentrations of maize NPG1-synthetic peptide (166, 332, and 664 pmol) in the presence of 4 M urea, in a buffer containing 100 mM Tris-HCl, pH 7.5, and 1 mM CaCl2 or 5 mM EGTA at room temperature for 1 h in a total volume of […]. Then, […] of sample buffer (0.375 M Tris-HCl, pH 6.8, 30% glycerol, and 0.023% bromphenol blue) was added to the samples and the mixture was electrophoresed in 12% polyacrylamide gels containing 4 M urea or 7.5% glycerol, 0.375 M Tris-HCl, pH 8.8, and either 1 mM CaCl2 or 5 mM EGTA. The gels were run at a constant voltage of 25 V per gel in an electrode buffer (25 mM Tris-HCl, pH 8.3, 192 mM glycine, and either 1 mM CaCl2 or 5 mM EGTA). The gels were stained with 0.25% Coomassie Blue R-250 in 7.5% acetic acid and 50% methanol for 1 h and then destained with 30% methanol and 7% acetic acid.

bovine CaM [4] = biological target: T1, bovine CaM; assay: as above; assay type: binding
Procedure: as §2

bovine CaM [5] = biological target: T1, bovine CaM; assay: Binding of synthetic peptide to bovine CaM; conditions: 'at concentrations as low as'
CaM = CaM binding of truncated Arabidopsis NPG1
From the text: To map the CaM-binding domain, a truncated version (aa 448-496 of SEQ ID NO:10) of Arabidopsis NPG1 which contains a putative calmodulin-binding domain was expressed in E. coli and tested for its ability to bind CaM. […] The CBD was further mapped to an eighteen amino acid stretch (aa 464-481) by using synthetic peptides in a gel-shift assay.

[6] = molar ratio 1:1 (peptide:CaM), CaCl2, 4 M urea
[7] = molar ratio 2:1 and 4:1 (peptide:CaM), CaCl2, 4 M urea

binding to the labeled CaM isoforms ([1]; 35S-labeled AtCaM isoforms, slot blot): Neither MP2 nor BSA showed any binding
Substance: AKLDQGSLLRVKA-KLKVAQSSPM (AKLDQGSLLRVKAKLKVAQSSPM) [MP-2]

binding to 35S-CaM (35S-labeled AtCaM): produced CaM-binding peptide
Substance: P3/NcoI: truncated P3 fusion protein (16 kDa) from the 168-bp NcoI fragment at the 5′ end of the cDNA (GGSVSKGWRLLALILSAQQRFSEAEVATDAALDETAKLDQGSLLRVKAKLKVAQSSP; left off: small tags and cut ends)

Substance: VSKGWRLLALILSAQQRF [MP-1]
lowest amount of synthetic peptide that bound CaM ([1]; CaM isoforms 2, 4, and 6, 'at concentrations as low as'): 0.5 µg
wavelength of peak emission (bovine CaM [2]): about 315 nm
wavelength of peak emission (CaM4; equimolar peptide and CaM4, excitation 290 nm, free peptide about 350 nm): about 315 nm
fluorescence intensity (CaM4; in the presence of CaM4, free peptide about 0.1): about 4.5
wavelength of peak emission (CaM2): about 315 nm
wavelength of peak emission (CaM6): about 315 nm
change in CaM mobility ([3]; in the presence of EGTA): No change in CaM mobility
CaM showing a mobility shift [3, 6]: about 50%
CaM migrating as peptide complex [3, 7]: the entire CaM migrated as a complex
change in CaM mobility (bovine CaM [4]; in the presence of EGTA): No change in CaM mobility
CaM showing a mobility shift (bovine CaM [4]; [6]): about 50%
CaM migrating as peptide complex (bovine CaM [4]; [7]): the entire CaM migrated as a complex
lowest amount of synthetic peptide that bound CaM (bovine CaM [5]): 0.5 µg

Substance: truncated version (aa 448-496 of SEQ ID NO:10): truncated Arabidopsis NPG1 containing a putative calmodulin-binding domain, expressed in E. coli (AASRYAKEFIDATGGSVLKGWRFLALVLSAQQRFSEAEVVTDAALDETA; listed as Arabidopsis thaliana)
ability to bind CaM (CaM): bound CaM in a manner similar to the full-length protein

— patent US20030061635A1, “Pollen-specific novel calmodulin-binding protein, NPG1 (No Pollen Germination1), promoter, coding sequences and methods for using the same” (priority 2001, published 2003)
